Assay results from paper doi:10.1101/2025.05.23.655777v1.

B1: Asp-AT; aspartate aminotransferase 1 (recombinant) (Arabidopsis thaliana) (protein)
chain: MSSWWKSVEPAPKDPILGVTEAFLADPSPEKVNVGVGAYRDDNGKPVVLECVREAEKRLAGSTFMEYLPMGGSAKMVDLTLKLAYGDNSEFIKDKRIAAVQTLSGTGACRLFADFQKRFSPGSQIYIPVPTWSNHHNIWKDAQVPQKTYHYYHPETKGLDFSALMDDVKNAPEGSFFLLHACAHNPTGVDPTEEQWREISQLFKAKKHFAFFDMAYQGFASGDPARDAKSIRIFLEDGHHIGISQSYAKNMGLYGQRVGCLSVLCEDPKQAVAVKSQLQQLARPMYSNPPLHGAQLVSTILEDPELKSLWLKEVKVMADRIIGMRTTLRESLEKLGSPLSWEHVTKQIGMFCYSGLTPEQVDRLTSEYHIYMTRNGRISMAGVTTGNVGYLANAIHEVTKSS
B2: Ala-AT; alanine aminotransferase 1 (recombinant) (Arabidopsis thaliana) (protein)
chain: SASDSSSSLPVTLDTINPKVIKCEYAVRGEIVNIAQKLQEDLKTNKDAYPFDEIIYCNIGNPQSLGQQPITFFREVLALCSYTALLDESATHGLFSSDSIERAWKILDQIPGRATGAYSHSQGIKGLRDAIADGIEARDGFPADPNDIFMTDGASPGVHMMMQLLITSEKDGILCPIPQYPLYSASIALHGGTLVPYYLDEASGWGLEISELKKQLEDARSKGITVRALAVINPGNPTGQVLSEENQRDVVKFCKQEGLVLLADEVYQENVYVPDKKFHSFKKVARSMGYGEKDLALVSFQSVSKGYYGECGKRGGYMEVTGFTSDVREQIYKMASVNLCSNISGQILASLIMSPPKPGDDSYESYIAEKDGILSSLARRAKTLEEALNKLEGVTCNRAEGAMYLFPCLHLPQKAIAAAEAEKTAPDNFYCKRLLKATGIVVVPGSGFRQVPGTWHFRCTILPQEDKIPAIVDRLTAFHQSFMDEFRD

What was measured:
Assay in all cases: purified protein
purified protein [1] = substrate: N[C@@H](CC(=O)O)C(=O)O; details: fixed 2-oxoglutarate (6 mM), HEPES pH 8.0, 50 µM PLP, 30 °C
purified protein [2] = substrate: O=C(O)CCC(=O)C(=O)O; details: HEPES pH 8.0, 50 µM PLP, 30 °C
purified protein [3] = substrate: N[C@@H](CS)C(=O)O; details: fixed 2-oxoglutarate (6 mM), HEPES pH 8.0, 50 µM PLP, 30 °C
purified protein [4] = substrate: C[C@H](N)C(=O)O; details: fixed 2-oxoglutarate (6 mM), HEPES pH 8.0, 50 µM PLP, 30 °C

Protein | Km (purified protein [1]) | kcat (purified protein [1]) | Km (purified protein [2]; fixed aspartate (12 mM)) | kcat (purified protein [2]; fixed aspartate (12 mM)) | Km (purified protein [3]) | kcat (purified protein [3]) | Km (purified protein [4]) | kcat (purified protein [4]) | Km (purified protein [2]; fixed alanine (9 mM)) | kcat (purified protein [2]; fixed alanine (9 mM))
B1 | 3330 ± 60 µM | 232.26 s⁻¹ | 460 ± 20 µM | 180.60 s⁻¹ | 15140 ± 640 µM | 0.81 s⁻¹ |  |  |  | 
B2 |  |  |  |  | 770 ± 100 µM | 0.14 s⁻¹ | 2510 ± 180 µM | 367.69 s⁻¹ | 180 ± 10 µM | 262.91 s⁻¹
